From US10942185B2, “Therapeutic and diagnostic methods for manipulating phagocytosis through calreticulin and low density lipoprotein-related receptor” (The Board of Trustees of the Leland Stanford Junior …, priority 2010, dated 2021) come the findings set out here.

One test concerns Molm 13 cells. Nature of the test: Cell surface calreticulin on staurosporine-treated Molm 13 cells, flow cytometry. The test is classed as cell-based, human. As to conditions: live cells, compared to isotype control. The text has this: (§1) FIGS. 14A-14B. […] Live cells were stained with anti-calreticulin (CRT) antibody conjugated by a fluorophore. […] Live cells were stained with LRP1 cluster IV-Fc protein followed by a secondary anti-Fc antibody conjugated to a fluorophore.
On the technique in general: In flow cytometry, cells or beads pass a laser one at a time.

The target of test [1] is T1, Calreticulin on the cell surface of Molm 13 cells (Homo sapiens, UniProt P27797).
T1 construct: endogenous in cells; host or cells: Molm 13 (human AML cell line), treated with staurosporine
T1 sequence (P27797 18-417): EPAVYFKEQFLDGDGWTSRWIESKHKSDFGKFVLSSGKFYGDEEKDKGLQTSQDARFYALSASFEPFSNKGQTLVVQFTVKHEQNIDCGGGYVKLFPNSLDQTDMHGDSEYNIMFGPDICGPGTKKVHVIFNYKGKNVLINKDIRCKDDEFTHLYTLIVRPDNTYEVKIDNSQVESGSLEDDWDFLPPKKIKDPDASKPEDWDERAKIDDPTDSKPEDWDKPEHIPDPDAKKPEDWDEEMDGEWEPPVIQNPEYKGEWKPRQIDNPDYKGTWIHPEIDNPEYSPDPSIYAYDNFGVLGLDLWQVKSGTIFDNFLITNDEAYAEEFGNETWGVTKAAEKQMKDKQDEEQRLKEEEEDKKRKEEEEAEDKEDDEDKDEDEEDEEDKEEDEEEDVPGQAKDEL
Nature of the test: LRP1 cluster IV-Fc binding to staurosporine-treated Molm 13 cells, flow cytometry.
Description: as §1

In test [2] the test system is primary human cancer cells. Nature of the test: In vitro phagocytosis assay, primary human cancer cells with human macrophages. The test is classed as cell-based. The settings on record: two hours; for phagocytosis of primary human cancer cells, agent alone: compared to IgG1 isotype control. As for the experimental part: (§2) Given the known role of CRT as a pro-phagocytic signal, its correlation with CD47 expression (FIG. 2A), and its ability to be counteracted by CD47 (FIG. 2), we investigated whether the expression of cell surface CRT on cancer but not normal cells could explain the selective targeting of tumor cells by a blocking anti-CD47 antibody. In vitro phagocytosis assays were performed by incubating primary human normal cells or cancer cells with human macrophages in the presence of anti-CD47 antibody. CD47 was expressed on all normal and cancer cells profiled (FIG. 2A and FIG. 7, 9), but expression of calreticulin was primarily restricted to tumor cells (FIG. 1A,B). […] (FIG. 3C).
(§3) Generation of human macrophages and in vitro phagocytosis assays were performed as previously described. Primary human samples or cell lines were incubated with 10 μg/ml IgG1 isotype control (Ebiosciences), 10 μg/ml anti-CD47 antibody (clone B6H12.2, ATCC), 4 μg/ml calreticulin blocking peptide (MBL International Corporation), 10 μg/ml RAP (Fitzgerald Industries International), or 125 μg/ml recombinant CRT human protein (Thermo Scientific). Per MBL, confirmation of blocking activity was performed by Western blot analysis, verified by incubation of an anti-CRT antibody with 5 times higher concentration of the peptide and performing a Western blot analysis to determine if the specific band had been diminished. Cells were then analyzed by fluorescence microscopy to determine the phagocytic index (number of cells ingested per 100 macrophages).

The next test relates to NBM cells. Nature of the test: In vitro phagocytosis assay, human NBM cells with human macrophages. Format: cell-based. As to conditions: vs vehicle or IgG1 isotype control.
Description: Next, the relationship between the level of tumor cell surface CRT expression and level of phagocytosis by anti-CD47 antibody was investigated. Cell surface CRT expression on tumor cells positively correlated with the degree of anti-CD47 antibody mediated phagocytosis, regardless of tumor cell type (FIG. 3D). Finally, given that normal cells express minimal levels of cell surface CRT, we investigated whether the addition of CRT to the surface of these cells could enable phagocytosis.
as §3

The test system of test [3] is primary human normal cells. Nature of the test: In vitro phagocytosis assay, normal human tissue cells with human macrophages. The test is classed as cell-based. As to conditions: several normal human tissue types, vs IgG1 isotype control. As for the experimental part:
as §2
Generation of human macrophages and in vitro phagocytosis assays were performed as previously described. Primary human samples or cell lines were incubated with 10 μg/ml IgG1 isotype control (Ebiosciences), 10 μg/ml anti-CD47 antibody (clone B6H12.2, ATCC), 4 μg/ml calreticulin blocking peptide (MBL International Corporation), 10 μg/ml RAP (Fitzgerald Industries International), or 125 μg/ml recombinant CRT human protein (Thermo Scientific). […] Cells were then analyzed by fluorescence microscopy to determine the phagocytic index (number of cells ingested per 100 macrophages).

“Also recorded” adds a separate entry of the source.

For the molecule `CN[C@@H]1C[C@H]2O[C@@](C)([C@@H]1OC)n1c3ccccc3c3c4c(c5c6ccccc6n2c5c31)C(=O)NC4` [staurosporine], the cell surface calreticulin result in the test on Molm 13 cells is given as “increase in cell surface calreticulin”.

Take “LRP1 cluster IV-Fc protein: LRP1 cluster IV fused to Fc, used to stain cell surface calreticulin”: the “binding to staurosporine-treated Molm 13 cells” value in test [1] (live cells, secondary anti-Fc antibody, flow cytometry) was “increase in the binding”.

“RAP: receptor-associated protein (RAP), an inhibitor of LRP (Fitzgerald Industries International)”: the “blocking of LRP1 cluster IV-Fc protein binding” value in test [1] (staurosporine-treated Molm 13 cells) was “can be blocked”. Further, in test [2] (in the presence of anti-CD47 antibody), the “anti-CD47 antibody-mediated phagocytosis of cancer cells” value is listed as “completely abrogated in most cases; also recorded: completely abrogated anti-CD47 antibody-mediated phagocytosis”. Besides, the “phagocytosis of primary human cancer cells, agent alone” value in test [2] is reported as “did not enable phagocytosis”; in test [2] (listed as LRP) it was “no effect on phagocytosis”.

B1: exogenous CRT: recombinant CRT human protein (Thermo Scientific), adsorbs onto the cellular surface and directly binds LRP (protein, UniProt P27797 18-417, looked up)
Calreticulin: EPAVYFKEQFLDGDGWTSRWIESKHKSDFGKFVLSSGKFYGDEEKDKGLQTSQDARFYALSASFEPFSNKGQTLVVQFTVKHEQNIDCGGGYVKLFPNSLDQTDMHGDSEYNIMFGPDICGPGTKKVHVIFNYKGKNVLINKDIRCKDDEFTHLYTLIVRPDNTYEVKIDNSQVESGSLEDDWDFLPPKKIKDPDASKPEDWDERAKIDDPTDSKPEDWDKPEHIPDPDAKKPEDWDEEMDGEWEPPVIQNPEYKGEWKPRQIDNPDYKGTWIHPEIDNPEYSPDPSIYAYDNFGVLGLDLWQVKSGTIFDNFLITNDEAYAEEFGNETWGVTKAAEKQMKDKQDEEQRLKEEEEDKKRKEEEEAEDKEDDEDKDEDEEDEEDKEEDEEEDVPGQAKDEL
B1: the “phagocytosis of NBM cells” value with NBM cells is on record as “enabled phagocytosis of NBM cells; also recorded: enabled increased phagocytosis”; with NBM cells (listed as Exogenous CRT), “enabled increased phagocytosis of NBM cells”.

B2: anti-CD47 antibody: blocking monoclonal anti-human CD47 antibody, clone B6H12.2, ATCC (antibody, V domains shown)
VH: EVQLVESGGDLVKPGGSLKLSCAASGFTFSGYGMSWVRQTPDKRLEWVATITSGGTYTYYPDSVKGRFTISRDNAKNTLYLQIDSLKSEDTAIYFCARSLAGNAMDYWGQGTSVTVSS
VL: DIVMTQSPATLSVTPGDRVSLSCRASQTISDYLHWYQQKSHESPRLLIKFASQSISGIPSRFSGSGSGSDFTLSINSVEPEDVGVYYCQNGHGFPRTFGGGTKLEIK
For the molecule B2, the “phagocytosis of NBM cells” value in the test with NBM cells is recorded as “did not; also recorded: No difference in phagocytosis”. Moreover, the “phagocytosis of normal human cells” value in test [3] is on record as “not phagocytosed; also recorded: No difference in phagocytosis”. In addition, the “phagocytosis of primary human cancer cells, agent alone” value in test [2] was “robustly phagocytosed; also recorded: are phagocytosed; also recorded: enabled phagocytosis of cancer cells”.
